One data set addresses Clo SugE. Format: binding, Clostridiales bacterium oral taxon 876.
Substrate in data set [1]: NC(N)=O
The data set can be described thus: purified protein.

Substrate in data set [2]: N=C(N)N
The data set can be described thus: purified protein.

Here are results for two molecules from PMC5360189 (Molecular cell, 2016).

On to `N=C(N)N` [guanidine], for which the Kd (in general, the free concentration of one partner at which half of the binding sites on the other are occupied at equilibrium, for simple one-to-one binding) on Clo SugE is ~1000 µM.

B1: urea carboxylase (guanidine carboxylase) (Oleomonas sagaranensis) (protein)
chain: MFKKILIANRGEIAARVIKTARKMGIATVAVHSEADRFTLPVLAADEAICLGPAPAKESYLRAEAIVQACIDTGAEAVHPGYGFLSENAGFAEALAAKGIRFIGPRPEHLRDFGLKHTARALAEAAGVPLLPGTGILLSAEEALAAAHEIGYPVMLKSTAGGGGIGMSLCHDASELQARFEAVQRMASSSFGDARVYIERFVSTARHVEVQIFGDGKGNVVALGERDCSLQRRNQKVVEETPAPGLSPELRARLHAAAVALGKAVAYESAGTVEFIYDVARGDFSFLEVNTRLQVEHPVTESVFGVDLVEWMIRQAAGELLLPAQGSLVPRGAAIEVRLYAENPQANFRPQTGRLTEVAFPDDIRVDTWVATGTEVTPFYDPMLAKVIVTGADRPAAIAALSDALAKTKVWGIETNLAYLRAIAASDVFTSGAVSTAALGQFVFTAPTIEVIVAGAQTSVQDWPGRLGLWDVGVPPSGPFDDRSFRLANRILGNAEGAAGLECTLSGPTLKFHGDALIALAGAEMPAALDGVAVPMLTAIPVKAGQTLSLGQIKGAGQRTYLAVRGGIDGPKFLGARACFSLGQFGGHATGVLKAGDTLHIAAETAGEPMPADEKPLITRDWVIGVHYGPHGAPDFFQDADIDDLFAATYEVHFNSARTGVRLIGPKPRWARADGGEAGLHPSNIHDNAYAIGAIDFTGDMPIILGPDGPSLGGFVCPAVIARDELWKAGQLKPGDKVRFVPHGMAAPQVITSKDIGTPILGTIDGGPVPVVYRRAGDDYLLVEYGPMVLDIALRLRIHLLAQAVREARLPAIIDLTPGIRSLQIHYDSRVLKTATLVAALREIEAGLPPAEAVKVPSRIVHLPLSWNDPSIQLAARKYQELVRPNAPWCPSNIEFIRRINGLGSVDDVQNIIFDASYLVLGLGDVYLGAPVATPVDPRHRLVTTKYNPARTWTPENAVGIGGAYMCIYGMEGPGGYQLFGRTVQMWNAWRTTPVFTPGHPWLLRFFDQIRFFPVSEQELIEAREAFPHGRYPVRIEETTFDYAQHAAFLAAERPAIEAAKARQQTAFEVERQDWKARGLDSFVVEDGPAASDADVPEGQTPVEAQVTGNVWKIIAEEGTNVAAGDIVVIVESMKMEMEIRSPVAGKVTALRCQPGRTVQAGQIVALIEAA
B1: the Km (in general, the substrate concentration at which the rate is half of its maximum) in the data set “purified protein [1]” was 5200 µM; in “purified protein [2]” it was 190 µM.
